Read-outs that look alike come from different tables or passages of the source. Primed or numbered codes have the meaning given here. Where no end group is shown, it is not given here. [ ]: non-standard residue; d: D form. pT = C[C@@H](OP(=O)(O)O)[C@H](N)C(=O)O; pS = N[C@@H](COP(=O)(O)O)C(=O)O; Biotin′ = not defined here
Key:
SAKLDEESILKQ-Biotin = assay: Octet binding assay of PTM-specific affinity reagent candidates, SA control peptide; design: unit not given here; conditions: fixed concentration of reagent
Source text: (§1) This Example characterizes an exemplary phosphorylated threonine recognizer for use in methods of the disclosure.

pSAKLDEESILKQ-Biotin [1] = assay: Octet binding assay of PTM-specific affinity reagent candidates, pSA peptide; conditions: fixed concentration of reagent
Source text: as §1

[2] = biological target: p…; assay: Octet (BLI), sensors coated with peptide
QRFpYLAYPDDD-FITC = assay: bulk fluorescence polarization, 0.5 µM PM49, FITC-labeled peptide
[3] = biological target: pT-…; assay: Octet (BLI), sensors coated with peptide
EFLN-pT-RFYK [4] = assay: Octet (BLI), sensors coated with peptide
…-Biotin [5] = biological target: T1, …-Biotin; assay: Octet (BLI), fixed reagent concentration
T1 sequence (peptide, C-terminal Biotin): SAKLDEESILKQ

p…-Biotin [6] = biological target: T2, p…-Biotin; assay: Octet (BLI), fixed reagent concentration
T2 sequence (peptide, phosphothreonine at 1; C-terminal Biotin): TAKLDEESILKQ

p…-Biotin [7] = biological target: T3, p…-Biotin; assay: Octet (BLI), fixed reagent concentration; remark: listed apart in the source
T3 sequence (peptide, phosphoserine at 1; C-terminal Biotin): SAKLDEESILKQ

[…]-Biotin = Octet binding assay of PTM-specific affinity reagent candidates, TA control peptide; conditions: fixed concentration of reagent
Source text: as §1

[8] = system: pT-ENR and pT-TDY peptides; assay: Two-stage chip run, phospho-threonine peptides spiked in the CDNF libraries; type: binding
Protocol: (§2) Using the two-stage recognition run format described above, PTM recognition of phospho-threonine in various peptide motifs was evaluated. Phospho-threonine detection by the PTM-specific affinity reagent in different peptide motifs was evaluated with unphosphorylated threonine ([…], […], […], […], and […]) and compared to their phosphorylated threonine counterparts (QRF-pT-LAYPDDD, RFL-pT-LAYPDDD, FLA-pT-LAYPDDD, LAQ-PT-LAYPDDD, and AQR-pT-LAYPDDD). […] The PTM-specific affinity reagent was also evaluated for its ability to detect phospho-threonine residues at different positions in peptides. […] Similar results were obtained by performing the same two-stage chip run on phospho-threonine peptides spiked in the CDNF libraries (FIGS. 19A-19H).

[9] = system: unphosphorylated threonine peptides; assay: Two-stage on-chip recognition run, unphosphorylated threonine peptides; type: binding
Protocol: (§3) The phospho-threonine-specific affinity reagent, PM12, was evaluated for its ability to bind phospho-threonine residues residing in a range of motifs and at different positions in peptides (FIG. 15). To evaluate the PTM-specific affinity reagent, two-stage on-chip recognition runs were performed as described in Example 3. […] Peptide sequencing following PTM detection was not affected for either peptide (FIGS. 16A-16C).
(§4) This was followed by a second stage in which reagents for peptide sequencing (amino acid recognition molecules, cleaving reagents) were added to the chip to determine sequence information for the single peptide molecules. The plots shown at the top of FIGS. 16B and 16C are stacked plots showing the number of apertures (y-axis) with recognition taking place on the chip over the course of two-stage recognition runs (x-axis) performed in parallel with peptides having unphosphorylated threonine (FIG. 16B) or phosphorylated threonine (FIG. 16C). Each plot shown at the bottom of FIGS. 16B and 16C is an example binding trace from a single aperture on the chip.
as §2

EFLNTRFY = assay: Octet binding platform, peptide-coated sensors dipped in PM12, control peptide; conditions: unphosphorylated threonine
Source text: (§5) Next, control peptides ([…] and […]) were compared to model peptides (EFLN-pT-RFYK and p[…]) to evaluate phospho-threonine detection in different peptide motifs using a post-translational modification-specific (PTM-specific) affinity reagent that binds to phospho-threonine (PM12). Using the Octet binding platform, Octet sensors were coated with the peptide of interest and dipped in buffer containing the PTM-specific affinity reagent. […] In contrast, no shift was detected with the corresponding control peptides having unphosphorylated threonine (FIGS. 14A-14B).

[…] = as above; conditions: unphosphorylated threonine
Source text: as §5

phospho-tyrosine (p[…]) = assay: Polarization binding assays of PM12; conditions: FITC-labeled peptide, PM12 2 μM
Protocol: (§6) FIGS. 21A-21E provide data from polarization binding assays using a fixed concentration of PM12 with 2 μM and FITC-labeled peptides (p[…], p[…], p[…], QRFp[…], p[…]).
(§7) This Example characterizes an exemplary phosphorylated threonine recognizer for use in methods of the disclosure. Octet binding assays at a fixed concentration of PTM-specific affinity reagent candidates were evaluated for binding with phospho-threonine, phospho-serine containing peptides (p[…]-Biotin; p[…]-Biotin; p[…]-Biotin), and control peptides without modifications ([…]-Biotin; […]-Biotin).

p[…]-Biotin [10] = assay: Octet binding assay of PTM-specific affinity reagent candidates, pTQR peptide; conditions: fixed concentration of reagent
Protocol: as §7

[11] = system: phospho-threonine peptides; assay: Two-stage on-chip recognition run, phospho-threonine peptides; type: binding
Protocol: as §3, §4, §2

…-Biotin [12] = biological target: T4, …-Biotin; assay: Octet (BLI), fixed reagent concentration; remark: listed apart in the source
T4 sequence (peptide, C-terminal Biotin): TAKLDEESILKQ

pSAKLDEESILKQ-Biotin [13] = biological target: T5, pSAKLDEESILKQ-Biotin; assay: Octet (BLI), fixed reagent concentration;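 further: octet binding of candidate PTM-specific affinity reagents, each at one fixed concentration, to biotinylated phospho-Thr or phospho-Ser peptides, with unmodified biotinylated peptides serving as controls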
T5 peptide: [pS]AKLDEESILKQ-{Biotin′}
Protocol: (§9) Octet binding assays at a fixed concentration of PTM-specific affinity reagent candidates were evaluated for binding with phospho-threonine, phospho-serine containing peptides (p[sequence]-Biotin; p[sequence]-Biotin; p[sequence]-Biotin), and control peptides without modifications ([sequence]-Biotin; [sequence]-Biotin).

pT-[…] = assay: Octet binding platform, peptide-coated sensors dipped in PM12; conditions: phospho-threonine at the N-terminus
Source text: as §5

EFLN-pT-RFYK [14] = assay: as above; conditions: phospho-threonine in the middle of the peptide
Source text: as §5

p[…]-Biotin [15] = assay: Octet binding assay of PTM-specific affinity reagent candidates, pTA peptide; conditions: fixed concentration of reagent
Source text: as §1

[16] = system: phospho-threonine peptides (p[…], QRFpTLAYPDDD, p[…]); type: binding
[17] = system: phospho-serine (p[…], p[…]); assay: Polarization and Octet binding assays of PM12; conditions: PM12 fixed concentration
Protocol: as §6, §7

LAQ-pY-LAYPDDDK = assay: On-chip fluorescence signature of PTM-specific affinity reagent binding before sequencing (Example 1); conditions: polypeptide with PTM, collected for 30 minutes
Protocol: (§8) A control polypeptide ([…]) and a model polypeptide comprising a phospho-tyrosine (LAQ-pY-[…]) were tested in this Example. Each polypeptide was first immobilized onto independent surfaces of a chip. A post-translational modification-specific (PTM-specific) affinity reagent that binds to phospho-tyrosine (PS33 (SEQ ID NO: 35)) and comprised a fluorescent label was then added to the chip and allowed to contact the polypeptides. […] The chip was then washed to remove the PTM-specific affinity reagent. A protein sequencing analysis of the polypeptides was then performed. A mixture of labeled terminal amino acid recognition molecules was added to the chip and allowed to incubate for 15 minutes. After 15 minutes, a mixture of cleaving reagents (a mixture of aminopeptidases) was added to the chip. During these steps, a series of signal pulses indicative of association of the one or more terminal amino acid recognition molecules with successive amino acids exposed at a terminus of each polypeptide were collected while each polypeptide was being degraded.

LAQYLAYPDDDK = assay: On-chip fluorescence signature of PTM-specific affinity reagent binding before sequencing (Example 1), control polypeptide; conditions: polypeptide without PTM, collected for 30 minutes
Protocol: as §8

TAKLDEESILKQ-Biotin = biological target: T6, TAKLDEESILKQ-Biotin; assay: Octet (BLI), fixed reagent concentration;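 further: octet binding of candidate PTM-specific affinity reagents, each at one fixed concentration, to biotinylated phospho-Thr or phospho-Ser peptides, with unmodified biotinylated peptides serving as controls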
T6 peptide: TAKLDEESILKQ-{Biotin′}
Protocol: as §9

p…-Biotin [18] = assay: Octet (BLI), fixed reagent concentration; remark: listed apart in the source
pTAKLDEESILKQ-Biotin = biological target: T7, pTAKLDEESILKQ-Biotin; assay: Octet (BLI), fixed reagent concentration;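 further: octet binding of candidate PTM-specific affinity reagents, each at one fixed concentration, to biotinylated phospho-Thr or phospho-Ser peptides, with unmodified biotinylated peptides serving as controls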
T7 peptide: [pT]AKLDEESILKQ-{Biotin′}
Protocol: as §9

## PM06: Human/14-3-3 protein zeta/delta, SEQ ID NO: 6
SAKLDEESILKQ-Biotin; SA = SAKLDEESILKQ-Biotin (control)
  Octet binding assay response, SA: 0.1
pSAKLDEESILKQ-Biotin [1]
  Octet binding assay response, pSA: 0.1

## PM49 (ABCAM® Biotin Anti-Phosphotyrosine antibody [EPR16871])
[2]
  Octet shift: 10.2
QRFpYLAYPDDD-FITC
  fold tighter binding affinity against an N-terminal phospho-tyrosine: 2 fold

## PM12 (Mycobacterium tuberculosis/FhaA) (from UniProt P71590 430-527)
[3]
  Octet shift: 4.4
EFLN-pT-RFYK [4]
  Octet shift: 6.8
…-Biotin [5]
  Octet binding assay response: 0.6
p…-Biotin [6]
  Octet binding assay response: 7.1

## PM06 (Human/14-3-3 protein zeta/delta) (from UniProt P63103 1-245)
…-Biotin [5]
  Octet binding assay response: 0.1
p…-Biotin [7]
  Octet binding assay response: 0.1

B1: PM12 (Mycobacterium tuberculosis/FhaA) (other)
chain: MGSAGTSVTLQLDDGSGRTYQLREGSNIIGRGQDAQFRLPDTGVSRRHLEIRWDGQVALLADLNSTNGTTVNNAPVQEWQLADGDVIRLGHSEIIVRMH
[…]-Biotin
  Octet binding assay response, TA: 0.6
[8]; in the same run
  discrimination of phosphorylated and unphosphorylated CDNF peptides: able to discriminate between phosphorylated and unphosphorylated CDNF peptides
[8]; peptide traces
  binding to phospho-threonine CDNF peptides: binding to pT-ENR and pT-TDY peptides
[9]; N-terminus, C-terminus, middle
  signal for unphosphorylated threonine residues at corresponding positions: no signal was observed
[9]; QRFT-, RFLT-, FLAT-, LAQT-, AQRT-LAYPDDD
  signal with unphosphorylated peptide motifs: no signal was detected
[9]; control peptide […]
  pulsing in the first 30 minutes: no pulsing
EFLNTRFY
  Octet shift: no shift
[…]
  Octet shift: no shift
phospho-tyrosine (p[…])
  binding for phospho-tyrosine: low binding
p[…]-Biotin [10]
  Octet binding assay response, pTQR: 7.1
SAKLDEESILKQ-Biotin; SA = […]-Biotin (control)
  Octet binding assay response, SA: 0.6
[11]; QRF-pT-, RFL-pT-, FLA-pT-, LAQ-pT-, AQR-pT-LAYPDDD, first 30 minutes
  phospho-threonine detection in different peptide motifs: able to detect phospho-threonine in all five peptide motifs tested
[11]; model peptide RFL-pT-LAYPDDD
  pulsing in the first 30 minutes: fast pulsing
[11]; pulsing in the first 30 minutes
  recognition of phospho-threonine at different positions in peptides: recognized phospho-threonine residues at the N-terminus, the C-terminus, and in the middle of peptides
p…-Biotin [6]
  Octet binding assay response: 6.9
…-Biotin [12]
  Octet binding assay response: 0.6
pSAKLDEESILKQ-Biotin [13]
  Octet binding assay response: 0.7
pT-[…]
  Octet shift: 4.4
EFLN-pT-RFYK [14]
  Octet shift: 6.8
p[…]-Biotin [15]
  Octet binding assay response, pTA: 6.9
[16]; FITC-labeled peptides, PM12 2 μM
  specificity for phospho-threonine: high specificity for phospho-threonine
[16]; internal vs N-terminal phospho-threonines, […]
  preference for phospho-threonine location in the peptide: slight preference for internal phospho-threonines
[17]
  binding for phospho-serine: low binding

B2: PS33: SH domanin Fyn Triple mutant, SEQ ID NO: 35; PTM-specific affinity reagent that specifically binds to phospho-tyrosine (protein)
chain: MGAMDSIQAEEWYFGKLGRKDAERQLLSFGNPRGTFLIRESETVKGAYALSIRDWDDMKGDHVKHYLIRKLDNGGYYITTRAQFETLQQLVQHYSERAAGLSSRLVVPSHK
LAQ-pY-LAYPDDDK
  fluorescence signature representative of binding interaction(s): strong fluorescence signature
LAQYLAYPDDDK
  fluorescence signature representative of binding interaction(s): no fluorescence signature

B3: PM18 (Human/MINT) (other)
chain: MVDMVQLLKKYPIVWQGLLALKNDTAAVQLHFVSGNNVLAHRSLPLSEGGPPLRIAQRMRLEATQLEGVARRMTVETDYCLLLALPCGRDQEDVVSQTESLKAAFITYLQAKQAAGIINVPNPGSNQPAYVLQIFPPCEFSESHLSRLAPDLLASISNISPHLMIVIASV
p[…]-Biotin [10]
  Octet binding assay response, pTQR: 1.6
SAKLDEESILKQ-Biotin; SA = […]-Biotin (control)
  Octet binding assay response, SA: 0.9
…-Biotin [5]
  Octet binding assay response: 0.9
p…-Biotin [7]
  Octet binding assay response: 0.6
p…-Biotin [6]; pTA phosphothreonine peptide
  Octet binding assay response: 0.7
p…-Biotin [6]; pTQR phosphothreonine peptide
  Octet binding assay response: 1.6
TAKLDEESILKQ-Biotin
  Octet binding assay response: 0.6
p[…]-Biotin [15]
  Octet binding assay response, pTA: 0.7

B4: PM05 (Human/14-3-3 protein beta/alpha) (other)
chain: MTMDKSELVQKAKLAEQAERYDDMAAAMKAVTEQGHELSNEERNLLSVAYKNVVGARRSSWRVISSIEQKTERNEKKQQMGKEYREKIEAELQDICNDVLELLDKYLIPNATQPESKVFYLKMKGDYFRYLSEVASGDNKQTTVSNSQQAYQEAFEISKKEMQPTHPIRLGLALNFSVFYYEILNSPEKACSLAKTAFDEAIAELDTLNEESYKDSTLIMQLLRDNLTLWTSENQGDEGDAGEGEN
p…-Biotin [18]
  Octet binding assay response: 0.2
…-Biotin [5]
  Octet binding assay response: 0.2
pTAKLDEESILKQ-Biotin
  Octet binding assay response: 0.2
TAKLDEESILKQ-Biotin
  Octet binding assay response: 0.2
pSAKLDEESILKQ-Biotin [13]
  Octet binding assay response: 0.2
